Test results published in the supplement of paper PMC10201428.
± gives the standard deviation of the averaged measurements.

B1: library; a variant is named by its letters at N, in order (parent)
chain: AATGTTGTTGATGCAACCATAAAGTGATATTTAATAATTATTTATAATCAGCAACTTAACCACAAAACAACCATATATTGATATNTCACAAAACAACCATAANTTGATATTTTTGTGAATCGAGTATTTCAGCAAAACTACTGCAGTAAGAA

Assays:
[1] = variants of: B1; test: relative integration efficiency (T-LR orientation) vs wild-type transposon end (log2 (normalized fold change)); transposon end mutated: left end; higher = more efficient transposition; conditions: with VchCAST RNA-guided transposition machinery (E. coli BL21(DE3) host, lacZ target)
Experimental: (§1)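 Pooled, barcoded VchCAST (Tn6677) mini-transposon donor libraries; each variable transposon-end sequence sits in a fixed pDonor mini-transposon context (10-bp barcode and cargo not included). Left- or right-end libraries were co-transformed with pEffector (TniQ-Cascade, TnsABC, lacZ crRNA, T7, 0.1 mM IPTG) into E. coli BL21(DE3) and grown 18 h at 37 C. T-LR and T-RL junction amplicons were sequenced; output/input barcode fold change was normalised to the mean of four wild-type barcodes and log2-transformed. Two biological replicates; zero-count/undetected variants carry floor values (-10 / -15), censored here. Barcode uncoupling by PCR recombination adds noise.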

[2] = variants of: B1; test: relative integration efficiency (T-RL orientation) vs wild-type transposon end (log2 (normalized fold change)); transposon end mutated: left end; higher = more efficient transposition; conditions: with VchCAST RNA-guided transposition machinery (E. coli BL21(DE3) host, lacZ target)
Experimental: as §1

| Variant | relative integration efficiency (log2) [1] | relative integration efficiency (log2) [2] |
| --- | --- | --- |
| TA A23G G24T A33T A70C T76A T84A C87A A96C T112G T113C | 0.304 ± 0.89 | 0.137 ± 0.19 |
| CG A11C | 0.113 ± 0.091 | -0.401 ± 0.34 |
| CG A11G | -0.67 ± 0.84 | 0.0387 ± 0.29 |
| CG A11T | -0.735 ± 0.14 | -0.00672 ± 0.034 |
| TA G24A T30A T76A A77G C87T A102T T111C T113C | -0.112 ± 0.15 | -0.456 ± 0.55 |
| TA A70C T76A T84A C87A A96C T110A T113A | 0.233 ± 0.15 | 0.0312 ± 0.25 |
| CG A16C C17A | -0.804 ± 0.72 | -0.728 ± 0.41 |
| TA A22T G24T T31C A33C T76A T78G C87A T104A T110A T113A | -0.444 ± 0.45 | -0.395 ± 0.24 |
| CG A1T A2T | 0.429 ± 0.098 | 0.223 ± 0.059 |
| TA T76A T78A T84A C87A A102T T111C T113C | -0.0132 ± 0.72 | 0.244 ± 0.16 |
| TA A16C G24T T32G A33C T76A T78G C87A A96C T110A T113A | -0.283 ± 0.56 | -0.233 ± 0.26 |
| CA A16C G24T T32G A33C A96C T110A T113A | -1.02 ± 1.2 | -0.362 ± 0.31 |
| CA A23G G24T A33T A96C T110A T113A | -0.448 ± 0.74 | -0.516 ± 0.28 |
| CG A21T A22T | -0.163 ± 0.75 | -0.172 ± 0.32 |
| TA G24A T30A T76A T78A T84A C87A T104A T110A T113A | 0.184 ± 0.12 | 0.0385 ± 0.19 |
| CA G24A T30A A96C T110A T113A | -0.0456 ± 0.31 | -0.302 ± 0.28 |
| TA A23G G24T A33T T76A T78A T84A C87A A96C T110A T113A | 0.43 ± 0.2 | 0.182 ± 0.35 |
| TA G24A T30A A70C T76A T84A C87A A102T T111C T113C | -0.133 ± 0.92 | -0.0645 ± 0.27 |
| TA A22T G24T T31C A33C T76A T78A T84A C87A T104G T113A | -0.19 ± 0.56 | -0.579 ± 0.53 |
| TG A16C G24T T30A T76A A77G C87T | -0.0311 ± 0.37 | -0.534 ± 0.47 |

| Variant | relative integration efficiency (log2) [1] | relative integration efficiency (log2) [2] |
| --- | --- | --- |
| TA A16C G24T T32G A33C A70C T76A T86G T104A T110A T113A | -0.474 ± 0.24 | -0.791 ± 0.56 |
| CA A96C T110A T113A | 0.444 ± 0.43 | 0.00902 ± 0.34 |
| CG A16C A70C A96C | -0.695 ± 0.11 | -0.475 ± 0.19 |
| TA A22T G24T T31C A33C A70C T76A T86G T104A T110A T113A | -0.292 ± 0.24 | -0.768 ± 0.47 |
| CG A2C T3G | 0.286 ± 0.049 | -0.0688 ± 0.0099 |
| TA T76A T78A T84A C87A T104A T110A T113A | 0.357 ± 0.48 | 0.0146 ± 0.17 |
| CA A23G G24T A33T T104G T113A | 0.0933 ± 0.62 | -0.0946 ± 0.2 |
| TA A23G G24T A33T T76A T78G C87A A96C T110A T113A | 0.938 ± 0.63 | 0.884 ± 0.19 |
| TA A16C G24T T32G A33C T76A A77G C87T A102T T111C T113C | -1.56 ± 0.58 | -1.11 ± 0.63 |
| CC A22T A23T T76A A77T A102T | -0.252 ± 0.23 | -0.313 ± 0.27 |
| TA T76A A77G C87T T104A T110A T113A | 0.28 ± 0.36 | -0.703 ± 0.35 |
| TA G24A T30A T76A A77G C87T T104G T113A | 0.395 ± 0.079 | -0.232 ± 0.36 |
| TA G24A T30A A70C T76A T84A C87A T104G T113A | 0.182 ± 0.22 | 0.0306 ± 0.22 |
| CG A16T C17G | -0.34 ± 0.47 | -0.0955 ± 0.095 |
| CG A1T A2T T3A G4C T5A | -0.0748 ± 0.54 | 0.103 ± 0.061 |
| CG A15T A16T | -0.556 ± 0.6 | -0.219 ± 0.36 |
| CG A21C A22C A23C G24T | -0.914 ± 0.79 | -1.03 ± 0.74 |
| TA A16C G24T T32G A33C A70C T76A T86G A102T T111C T113C | -1.2 ± 0.65 | -0.838 ± 0.29 |
| TA A22T G24T T31C A33C T76A T78G C87A A96C T110A T113A | -0.606 ± 0.66 | -0.329 ± 0.25 |
| TA G24A T30A T76A T78G C87A T104A T110A T113A | 0.464 ± 0.53 | -0.242 ± 0.034 |

| Variant | relative integration efficiency (log2) [1] | relative integration efficiency (log2) [2] |
| --- | --- | --- |
| TA A22T G24T T31C A33C A70C T76A T86G A102T T111C T113C | -0.793 ± 0.32 | -0.813 ± 0.39 |
| TG A16C G24T T32G A33C A70C T76A T84A C87A | -0.64 ± 0.74 | -0.378 ± 0.44 |
| CA A16C G24T T32G A33C A102T T111C T113C | -0.854 ± 0.58 | -0.751 ± 0.51 |
| CA A22T G24T T31C A33C A96C T110A T113A | -0.837 ± 0.2 | -0.802 ± 0.25 |
| TA T76A A77G C87T A96C T112G T113C | -0.4 ± 0.34 | -0.203 ± 0.3 |
| TG A16C G24T T32G A33C T76A A77G C87T | -0.184 ± 0.15 | -0.603 ± 0.47 |
| TA A22T G24T T31C A33C A70C T76A T84A C87A A96C T110A T113A | -0.841 ± 0.82 | -0.504 ± 0.43 |
| TA A22T G24T T31C A33C T76A A77G C87T A102T T111C T113C | -0.361 ± 0.78 | -0.688 ± 0.55 |
| TA A23G G24T A33T T76A A77G C87T A96C T112G T113C | -0.402 ± 0.62 | -0.2 ± 0.18 |
| TA T76A A77G C87T A96C T110A T113A | -0.108 ± 0.52 | -0.522 ± 0.3 |
| TA T76A T78A T84A C87A A96C T112G T113C | -0.207 ± 0.74 | 0.00846 ± 0.17 |
| CC A101T A102T T104A | -0.0376 ± 0.63 | -0.0794 ± 0.32 |
| TA T76A T78A T84A C87A A96C T110A T113A | 0.0631 ± 0.19 | 0.318 ± 0.081 |
| CC | 0.321 ± 0.75 | -0.0693 ± 0.024 |
| CG | -0.0136 ± 0.21 | -0.00322 ± 0.1 |
| TG A16C G24T T30A T76A T78A T84A C87A | 0.0694 ± 0.32 | 0.372 ± 0.36 |
| TA A23G G24T A33T A70C T76A T86G T104G T113A | 0.529 ± 0.03 | -0.0666 ± 0.38 |
| CC A102T T104A T105A | -0.708 ± 0.07 | -0.322 ± 0.48 |
